Test [1] concerns the target T1, MBP-Th-LGR4 LRR1-14 (MBP-Th-hLGR4.23-383-H6) (human, UniProt Q9BXB1 23-383).
T1 construct: range 23-383; Produced in E. coli; Labeled with amine-reactive terbium chelate in the TR-FRET assay; unlabeled in the AlphaLISA ternary complex assay; also called MBP-Th-LGR4 ECD; LGR4 ECD; not shown: thrombin cut site (Th) linker
Kind of test: TR-FRET competition binding; Tb-labeled MBP-Th-LGR4 LRR1-14, AF488-labeled MBP-Th-RSPO2 Fu1-Fu2 as tracer. Background: Time-resolved FRET reads energy transfer from a long-lived donor to a nearby acceptor.

Test [2] concerns the target T1, MBP-Th-LGR4 LRR1-14 …. The experiment in a line: TR-FRET competition binding; Tb-labeled MBP-Th-LGR4 LRR1-14 (20 nM), AF488-labeled MBP-Th-RSPO2 Fu1-Fu2 (125 nM) as tracer. As for the experimental part:
(§1) HEK293T cells transfected with TOPFLASH firefly luciferase reporter and Renilla luciferase control plasmids were treated with the indicated concentrations of MBP-Th-RSPO Fu1-Fu2 proteins in 1:6 diluted Wnt3a conditioned media. […] (C) AlphaLISA® luminescent proximity assay (BMG Labtech GmbH, Ortenberg, Germany) for ZNRF3 ECD binding. The indicated concentrations of MBP—Th-RSPO Fu1-Fu2 proteins were incubated with 3 nM Biotin-ZNRF3 ECD. Donor and acceptor beads were at 20 μg/ml each. Data shown for panels A-C are representative of at least three independent experiments, each performed in duplicate. The error bars represent the S.E.M. of the experiment. (D, E, F) Vertical scatter plots showing the pECso, Eₘₐₓ, and pK₁ values obtained from replicate independent signaling and LGR4 binding experiments as in panels A and B. The mean values and error bars representing the S.E.M. of the replicates are denoted.
(§2) The LGR4 ECD binding abilities of the newly purified MBP-Th-RSPO Fu1-Fu2-H₆ proteins were examined in an in vitro LanthaScreen®TR-FRET competition-binding assay (Thermo Fisher Scientific Inc., Rockford, Ill.).

The target in test [3] is T1, MBP-Th-LGR4 LRR1-14 …. The experiment in a line: TR-FRET competition binding to LGR4 ECD. As for the experimental part: as §1, §2
The target in test [4] is T1, MBP-Th-LGR4 LRR1-14 …. Kind of test: AlphaLISA ternary complex control assay.

B1: MBP-Th-RSPO4 Fu1-Fu2-H6 (MBP-Th-RSPO4.21-138-H6), produced in E. coli (ligand)
chain: NRRKKQVGTGLGGNCTGCIICSEENGCSTCQQRLFLFIRREGIRQYGKCLHDCPPGYFGIRGQEVNRCKKCGATCESCFSQDFCIRCKRQFYLYKGKCLPTCPPGTLAHQNTRECQGEHHHHHH
notes: Bacterially produced; also called MBP-Th-RSPO4 (E. coli); pAP356; not shown: thrombin cut site (Th) linker
B1: the figures for the pKI in test [1] and in test [2] were 8.28 and 8.12, respectively. Also, the “fold stronger affinity than RSPO2 and RSPO3” value in test [3] was roughly 7 fold.

B2: MBP-Th-RSPO3 Fu1-Fu2-H6 (MBP-Th-RSPO3.22-146-H6) (ligand)
chain: QNASRGRRQRRMHPNVSQGCQGGCATCSDYNGCLSCKPRLFFALERIGMKQIGVCLSSCPSGYYGTRYPDINKCTKCKADCDTCFNKNFCTKCKSGFYLHLGKCLDNCPEGLEANNHTMECVSIVHHHHHH
notes: Produced in E. coli; also called pAP355; not shown: thrombin cut site (Th) linker
In turn, B2 yielded a pKI in test [2] of 7.31.

B3: Biotin-ZNRF3 ECD (Avi tag-ZNRF3.56-216-H6, MBP removed by thrombin) (receptor, human)
chain: KETAFVEVVLFESSPSGDYTTYTTGLTGRFSRAGATLSAEGEIVQMHPLGLCNNNDEEDLYEYGWVGVVKLEQPELDPKPCLTVLGKAKRAVQRGATAVIFDVSENPEAIDQLNQGSEDPLKRPVVYVKGADAIKLMNIVNKQKVARARIQHRPPRQPTEYHHHHHH
modifications: biotin on the N-terminal Avi tag (site-specific in vivo biotinylation by BirA)
notes: range 56-216; Expressed in E. coli as MBP-Th-Avi tag-ZNRF3.56-216-H6; also called biotinylated ZNRF3 ECD; B-Z; not shown: Avi tag (and residues left after thrombin cleavage)
For B3, in test [4], the binding result is listed as “no binding (tested: 5 nM each)”.

B4: MBP-Th-RSPO1 Fu1-Fu2-H6 (ligand)
chain: SRGIKGKRQRRISAEGSQACAKGCELCSEVNGCLKCSPKLFILLERNDIRQVGVCLPSCPPGYFDARNPDMNKCIKCKIEHCEACFSHNFCTKCKEGLYLHKGRCYPACPEGSSAANGTMECSSPHHHHHH
notes: Produced in E. coli; also called MBP-Th-hRSPO1 Fu1-Fu2-H6; not shown: thrombin cut site (Th) linker
As for B4, the pKI in test [2] turned out to be 6.9.

B5: MBP-Th-RSPO2 Fu1-Fu2-H6 (MBP-Th-RSPO2.22-144-H6) (ligand)
chain: QGNRWRRSKRASYVSNPICKGCLSCSKDNGCSRCQQKLFFFLRREGMRQYGECLHSCPSGYYGHRAPDMNRCARCRIENCDSCFSKDFCTKCKVGFYLHRGRCFDECPDGFAPLEETMECVEGHHHHHH
notes: Produced in E. coli; also called pAC018; not shown: thrombin cut site (Th) linker
As for B5, the pKI in test [2] worked out at 7.26.

B6: commercial full-length RSPO4 produced in CHO cells (R&D Systems, catalog number 4575-RS-025/CF) (ligand, UniProt Q2I0M5 20-234, looked up)
chain: LNRRKKQVGTGLGGNCTGCIICSEENGCSTCQQRLFLFIRREGIRQYGKCLHDCPPGYFGIRGQEVNRCKKCGATCESCFSQDFCIRCKRQFYLYKGKCLPTCPPGTLAHQNTRECQGECELGPWGGWSPCTHNGKTCGSAWGLESRVREAGRAGHEEAATCQVLSESRKCPIQRPCPGERSPGQKKGRKDRRPRKDRKLDRRLDVRPRQPGLQP
notes: mature; Bought protein; also called R&D RSPO4 (CHO)
Regarding B6, the pKI in test [1] is 8.23.

For the origin of these results see patent publication US20160152947A1 (BOARD OF REGENTS OF THE UNIVERSITY OF OKLAHOMA, published 2016).
